This is an account of results in patent publication US20080274117A1.

In the experiment the target is DBD-TSSK2 (myc tagged): human TSSK2 ORF fused with the Gal4 DNA-binding domain (pGBK-TSSK2) (human). Put plainly: cell-based or functional assay.

Take “TSKS deletion mutant lacking the carboxyl terminus and second coiled-coil region, fused with the Gal4 activation domain (pGAD) (from UniProt P04386 768-881)”: the alpha-galactosidase activity as percentage of full length TSKS (% reduction against full length TSKS) was 75.

On to “TSKS deletion mutant lacking the first 48 amino acids, fused with the Gal4 activation domain (pGAD) (from UniProt Q9UJT2 49-592)”, for which the alpha-galactosidase activity as percentage of full length TSKS (% of full length TSKS) came out at 5.
